Data on 91 sequences can be found in the supplement of paper PMC9112550, “Optimization of the antimicrobial peptide Bac7 by deep mutational scanning” (BMC Biology, 2022).
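Also: peptides expressed intracellularly from a pBAD plasmid library in pooled LB shake-flask culture, induced with 0.3% L-arabinose, DNA abundance read by NGS, three biological replicates, DESeq2 with apeglm shrinkage.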

For this data set, the system named is Escherichia coli TOP10. Kind of data set: shrunken log2 fold change of peptide-encoding DNA abundance (4.5 h post-induction vs induction); higher = less antimicrobial activity (less host growth inhibition). Particulars: time post-induction: 4.5 h; library: site-saturation at positions 5, 18, 19, 20.
RRIRDRPPRLPRPRPRPMNLPRP: the “shrunken log2 fold change” value is -0.1. Next, RRIRPRPPRLPRPRPRPQQFPRP: -0.049; RRIRRRPPRLPRPRPRPAKTPRP: 0.408. On to RRIRYRPPRLPRPRPRPGCHPRP, for which the “shrunken log2 fold change” value is -0.711. With RRIRIRPPRLPRPRPRPEGVPRP the figure was 0.115; with RRIRLRPPRLPRPRPRPHVIPRP, 0.0211. Next, RRIRGRPPRLPRPRPRPGEGPRP: 1.15; RRIRFRPPRLPRPRPRPCYNPRP: -0.255; RRIRHRPPRLPRPRPRPCLFPRP: -0.229. Next, RRIRGRPPRLPRPRPRPGSMPRP: 0.305. Regarding RRIRRRPPRLPRPRPRPVWWPRP, the “shrunken log2 fold change” value was determined as 0.703.

For the sequence RRIRVRPPRLPRPRPRPNRVPRP, the “shrunken log2 fold change” value was 0.0523.

Regarding RRIRKRPPRLPRPRPRPSTGPRP, the “shrunken log2 fold change” value is -0.284. As for RRIRIRPPRLPRPRPRPHHCPRP, the “shrunken log2 fold change” value is -0.00699. Next, RRIRPRPPRLPRPRPRPYYNPRP: -1.11; RRIRIRPPRLPRPRPRPTLYPRP: -0.348.

For RRIRSRPPRLPRPRPRPWYSPRP, the “shrunken log2 fold change” value was -0.257. Next, RRIRYRPPRLPRPRPRPVLKPRP: -0.122; RRIRPRPPRLPRPRPRPTRIPRP: 0.105. Turning to RRIRYRPPRLPRPRPRPGIPPRP, the “shrunken log2 fold change” value was -0.193. With RRIRFRPPRLPRPRPRPLIAPRP, the “shrunken log2 fold change” value is -0.234. With RRIRGRPPRLPRPRPRPSRGPRP the figure was 0.605. With RRIRFRPPRLPRPRPRPNVTPRP the figure was -0.724; with RRIRDRPPRLPRPRPRPFFDPRP, 0.266. For the sequence RRIRYRPPRLPRPRPRPHCTPRP, the “shrunken log2 fold change” value is -0.372.

On to RRIRPRPPRLPRPRPRPPNRPRP, for which the “shrunken log2 fold change” value was 0.29. Next, RRIRVRPPRLPRPRPRPFQNPRP: 0.00707; RRIRDRPPRLPRPRPRPFQGPRP: -0.181; RRIRVRPPRLPRPRPRPVHWPRP: 0.133. Next, RRIRSRPPRLPRPRPRPHYSPRP: -0.596; RRIRTRPPRLPRPRPRPIAVPRP: -0.213; RRIRNRPPRLPRPRPRPVHHPRP: -2.09. With RRIRTRPPRLPRPRPRPMVRPRP the figure was -0.0017; with RRIRLRPPRLPRPRPRPYSTPRP, -1.09; with RRIRPRPPRLPRPRPRPAFQPRP, 0.156.

Regarding RRIRCRPPRLPRPRPRPQVCPRP, the “shrunken log2 fold change” value was -0.203. Next, RRIRYRPPRLPRPRPRPRYEPRP: -0.415; RRIRCRPPRLPRPRPRPQLEPRP: -0.135.

With RRIRRRPPRLPRPRPRPNEWPRP, the “shrunken log2 fold change” value came out at 0.0626.

For the sequence RRIRTRPPRLPRPRPRPNLPPRP, the “shrunken log2 fold change” value stood at 0.0474. For the sequence RRIRKRPPRLPRPRPRPNRVPRP, the “shrunken log2 fold change” value was -0.00538. With RRIRVRPPRLPRPRPRPDWDPRP the figure was 0.0311; with RRIRKRPPRLPRPRPRPGSQPRP, 0.359; with RRIRWRPPRLPRPRPRPLSDPRP, 0.254.

For the sequence RRIRRRPPRLPRPRPRPDMTPRP, the “shrunken log2 fold change” value amounted to 0.0544. Next, RRIRYRPPRLPRPRPRPQMHPRP: -0.748. Next, RRIRNRPPRLPRPRPRPVMQPRP: -0.187; RRIRPRPPRLPRPRPRPALRPRP: 0.545.

With RRIRARPPRLPRPRPRPCYRPRP, the “shrunken log2 fold change” value is -0.141. With RRIRLRPPRLPRPRPRPYRGPRP the figure was -0.246; with RRIRMRPPRLPRPRPRPIFEPRP, 0.166. As to RRIRHRPPRLPRPRPRPTDMPRP, the “shrunken log2 fold change” value came out at 0.151.

In the case of RRIRLRPPRLPRPRPRPKHNPRP, the “shrunken log2 fold change” value is -0.384. Regarding RRIRERPPRLPRPRPRPEALPRP, the “shrunken log2 fold change” value was 0.0535. With RRIRCRPPRLPRPRPRPWNAPRP the figure was -0.129.

In the case of RRIRFRPPRLPRPRPRPGTVPRP, the “shrunken log2 fold change” value was 0.0642. With RRIRERPPRLPRPRPRPPDGPRP, the “shrunken log2 fold change” value came out at 0.0068. Next, RRIRWRPPRLPRPRPRPVKHPRP: 0.0838. RRIRCRPPRLPRPRPRPYSWPRP: the “shrunken log2 fold change” value is -0.77. For the sequence RRIRFRPPRLPRPRPRPDDAPRP, the “shrunken log2 fold change” value worked out at 0.133.

RRIRYRPPRLPRPRPRPKTRPRP: the “shrunken log2 fold change” value is -0.142. With RRIRRRPPRLPRPRPRPYVFPRP the figure was -0.623; with RRIRLRPPRLPRPRPRPVCKPRP, 0.000959.

For RRIRGRPPRLPRPRPRPLGFPRP, the “shrunken log2 fold change” value was determined as 0.755. With RRIRSRPPRLPRPRPRPQFPPRP the figure was -0.00708; with RRIRQRPPRLPRPRPRPIGVPRP, -0.00783. With RRIRVRPPRLPRPRPRPTKAPRP the figure was -0.142; with RRIRCRPPRLPRPRPRPVAEPRP, 0.417; with RRIRDRPPRLPRPRPRPIYDPRP, -0.0423.

RRIRHRPPRLPRPRPRPSGGPRP: the “shrunken log2 fold change” value is -0.0256. Next, RRIRNRPPRLPRPRPRPIEFPRP: -0.235; RRIRHRPPRLPRPRPRPMPPPRP: 0.00237; RRIRHRPPRLPRPRPRPYLQPRP: -0.0639. Next, RRIRHRPPRLPRPRPRPFQLPRP: -0.0386.

With RRIRPRPPRLPRPRPRPYNEPRP, the “shrunken log2 fold change” value is -0.458. Take RRIRFRPPRLPRPRPRPMWWPRP: the “shrunken log2 fold change” value was 0.0551. Next, RRIRSRPPRLPRPRPRPNDMPRP: -0.193; RRIRLRPPRLPRPRPRPECIPRP: -0.0423; RRIRGRPPRLPRPRPRPLSYPRP: 0.00315. Consider RRIRTRPPRLPRPRPRPMNNPRP, for which the “shrunken log2 fold change” value is -0.582. With RRIRCRPPRLPRPRPRPNSMPRP the figure was -0.745; with RRIRMRPPRLPRPRPRPSKKPRP, -0.0297. With RRIRLRPPRLPRPRPRPMNVPRP the figure was -0.839; with RRIRGRPPRLPRPRPRPFFKPRP, 0.186; with RRIRLRPPRLPRPRPRPIIFPRP, -0.288.

With RRIRVRPPRLPRPRPRPNHNPRP, the “shrunken log2 fold change” value was -0.638. Next, RRIRFRPPRLPRPRPRPPHEPRP: -0.064; RRIRHRPPRLPRPRPRPCLNPRP: -0.263; RRIRVRPPRLPRPRPRPERWPRP: 0.615. Next, RRIRTRPPRLPRPRPRPLGLPRP: 0.207; RRIRRRPPRLPRPRPRPWHWPRP: 0.183.
